The target of one test is T1, endogenous human NOX4 (Homo sapiens (endogenous), UniProt Q9NPH5).
T1 construct: NADPH oxidase 4 (NOX4), endogenous in human cell lines and human tissues; also called endogenous NOX4; NOX4 protein; source: endogenous: CCL-210 lung fibroblast and COV362 whole-cell extracts; COV362 and OVCAR3 membrane fractions; COV362 cells; formalin-fixed human tissues (BioMax TMA MC6163)
As to the kind of experiment: Western blot; whole-cell extracts (RIPA buffer) loaded without boiling on a 4-20% Tris glycine gel, transferred to nitrocellulose, incubated with primary antibody overnight; fibroblasts treated with TGF-β1, COV362 cells with NOX4 siRNA. Conditions: one partner purified. For orientation: In western blotting, separated proteins are transferred to a membrane and probed.

Test [1] addresses T2, MycDDK-HsNOX4 (human NADPH oxidase 4) (Homo sapiens, UniProt Q9NPH5).
T2 construct: NADPH oxidase 4 (NOX4), human, from plasmid pCMV-MycDDK-HsNOX4; also called MycDDK-NOX4; source: HEK293, stably (clones WT1, WT2) or transiently transfected; in whole-cell extract or on/in cells; not shown: Myc, N-terminal, kept; DDK, N-terminal, kept
The test is described as above. Conditions: one partner purified.

T2 sequence (Q9NPH5 whole entry): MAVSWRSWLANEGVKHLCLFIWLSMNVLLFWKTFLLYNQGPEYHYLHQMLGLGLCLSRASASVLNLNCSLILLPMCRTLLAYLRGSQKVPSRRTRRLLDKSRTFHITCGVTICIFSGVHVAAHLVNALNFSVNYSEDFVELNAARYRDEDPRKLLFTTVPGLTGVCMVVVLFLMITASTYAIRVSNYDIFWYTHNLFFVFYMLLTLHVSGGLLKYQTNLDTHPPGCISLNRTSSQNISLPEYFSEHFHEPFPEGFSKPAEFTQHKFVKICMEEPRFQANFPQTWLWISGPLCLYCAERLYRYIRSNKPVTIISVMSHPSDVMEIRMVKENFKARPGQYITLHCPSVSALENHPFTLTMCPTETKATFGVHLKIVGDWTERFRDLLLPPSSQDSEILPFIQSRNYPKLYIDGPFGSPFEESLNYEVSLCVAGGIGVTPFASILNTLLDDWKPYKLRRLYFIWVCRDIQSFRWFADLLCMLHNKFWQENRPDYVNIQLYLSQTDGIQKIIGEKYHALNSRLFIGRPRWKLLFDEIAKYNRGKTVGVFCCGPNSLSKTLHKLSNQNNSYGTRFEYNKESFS
T1 sequence (Q9NPH5 whole entry): as above

B1: NOX4 rabbit monoclonal antibody 47-6 (antibody, V domains shown)
VH: QSVEESGGRLVTPGGSLTLTCTVSGIDLSSNSVTWVRQAPGEGLKWIGIISDSHRAYYATWAKGRFTISKTSSTTVDLKMTSLTTGDTATYFCVVGNNIWGPGTLVTVSS
VL: AQVLTQTASPVSAAVGGTVTINCQASESVYSDNRLSWFQQKPGQPPKLLIYYASTLASGVPSRVKGSGSGTQFTLTISDLECDDAATYYCAGGFSNNIYEFGGGTEVVVK
notes: Rabbit monoclonal raised against fixed NOX4-overexpressing HEK293 cells and a peptide of human NOX4 amino acids 209-282 (E-loop); also called mAb 47-6; 47-6 mAb
For B1, the binding result (in the test with endogenous human NOX4; in test [1]) was “binds” in each case.

Values taken from PMC5458090, “Decoding NADPH oxidase 4 expression in human tumors” (Redox Biology, 2017).
